This data set concerns the molecule itself. The data set can be described thus: ESI-IMS-MS of colpeptin1 in 100 mM ammonium acetate buffer (self-association).

B1: Colpeptin1 (P2) (peptide)
peptide: RGLGLALVRRPRGLGLALVRR
Turning to B1, the binding result is recorded as “binds”.

Values taken from patent publication US20210077563A1 (VIB VZW, published 2021).
